B1: HEEH_KT_rd6_0790 (parent)
chain: SEEEEEEWRRAKERGEEIIILGILWKPNDEEAERRIKEALRRV
B2: EEHEE_rd4_0647 (parent)
chain: MQVTWGNVTVTFSNPEEAKKYAEKVARKLGGQVELHNGQFRIK

Variants of: B1
Experiment: folding stability dG (cDNA display proteolysis); higher = more stable
Settings: PBS, room temperature

Folding stability dG [kcal/mol] of substitutions, site by site:
L21: W 1.26, R 2.07, V 1.34
E3: A 2.33, N 2.36, S 2.49, L 2.28, I 2.32, M 2.24
L40: T 0.781, M 1.76, I 1.97, E 0.814, K 1.06, A 1.12, F 1.78
E16: P 1.15, V 2.15, F 2.04
K12: F 2.13, H 1.96
W25: T 0.615, M 0.967, L 0.939
E13: R 1.77, V 1.94, M 2.23, Q 2.15, H 1.68, T 1.77, I 2.04, F 1.77
R35: L 2.19, Q 2.14
A39: C 2.06, K 1.79, I 1.81, H 1.38, N 1.01, S 1.26
D29: W 1.55, P 1.09, Y 1.24, H 1.28, K 0.951, M 1.05
K37: I 2.56, Q 2.04, D 1.93, E 2.49, W 2.3, T 2.4
K26: A 1.87, Q 1.64, N 1.6, R 2.4, F 1.51, P 1.26
P27: A 1.13, F 1.41, N 1.22, M 1.18
R34: A 2.22, Y 1.87, P 0.726
I23: S 0.659, L 1.46, K 1.08, Y 0.775, M 1.08
G15: T 1.18, W 1.68, Y 1.44, A 1.39, Q 1.81
I20: L 1.35, V 1.84, F 2.27
E7: V 2.09, H 2.14, Q 2.44, L 2.65, P 1.32
R10: N 1.69, A 1.82, W 1.77, K 2.04, T 1.55
V43: R 2.75, E 2.08
E33: S 1.68, D 2.01
L24: F 1.64, V 1.79, R 1.95, M 1.79, H 1.75
I36: H 0.809, E 0.641, Q 0.909, K 0.876
E2: W 2.54, P 2.21, F 2.7, R 2.39
I19: K 1.49, R 1.77, A 1.33
I18: R 1.3, L 1.39, W 1.67, E 0.975, N 1.06
R41: A 2.07, Y 1.74, E 1.89
E31: K 1.32, I 1.8, W 1.5
E4: H 2.41, S 2.21, K 1.92, N 1.94
E17: L 1.89, I 1.94, Q 2.02, P 2.5
E38: L 1.39, P 1.11, Y 0.909, Q 1.93, A 1.94
R9: H 1.83, V 1.75, D 1.36, Q 1.96, Y 1.95, P 0.985
E30: Q 1.94, F 2.05
S1: Q 2.15, R 2.18, W 2.77, K 2.1, C 2.82
N28: S 1.62, A 1.67, Y 1.9, L 1.61
R42: C 1.95, P 1.33, I 2, F 1.77
A11: Y 1.95, N 1.28, M 1.94, F 1.89, K 1.37, Q 1.2
G22: W 1.93, T 1.4, M 2.3, Q 1.15, H 1.1
R14: W 1.58, P 1.09, E 1.68, S 1.92
E5: N 1.83, H 1.8, R 1.47, P 1.91
W8: V 1.12, D 0.922, Y 1.72, G 0.818
A32: L 1.41, V 1.37, I 1.39, W 1.02, F 0.917
E6: R 1.65, S 1.63

Variants of: B2
Experiment: as above
Settings: PBS, room temperature

Folding stability dG [kcal/mol], by site and new letter:
K43: E 2.28, M 2.86, Y 2.88, F 2.96, S 2.64, P 1.8, I 3.52, Q 2.59, C 3.45, D 1.93, V 3.52, T 3.14, H 2.66, A 2.57, G 2.04, R 2.98, L 3.2, W 2.67, N 2.59
Q39: T 2.69, S 2.65, R 2.45, C 2.68, N 2.75, K 2.43, A 2.73, H 2.93, Y 2.29, E 2.72, P 0.269, W 1.7, V 2.99, D 1.96, L 2.1, G 3.07, F 2.23, I 3.09, M 2.61
H36: L 2.89, V 3.35, E 2.78, M 2.68, C 3.37, T 2.6, P 0.326, W 2.85, F 2.79, A 2.51, Y 2.79, I 3.34, R 2.58, N 2.33, Q 2.54, G 1.8, D 2.53, K 2.66, S 2.6
N37: P 1.58, L 2.14, Q 2.27, A 2.05, S 1.93, D 2.69, V 1.39, H 2.14, Y 1.7, E 2.56, M 2.11, T 1.36, F 1.9, W 1.32, G 2.32, I 1.41, R 1.92, K 2.26
G38: Q 1.67, D 1.91, Y 1.64, C 2.88, T 1.36, R 1.89, K 1.81, N 2.46, I 0.887, S 1.6, L 1.46, M 1.65, W 1.24, P 0.661, F 1.73, V 0.809, E 1.44, H 3.93, A 1.32
F40: E 0.453, W 3.25, S 0.308, R 0.666, H 1.07, C 1.51, V 1.46, Q 0.812, M 1.95, G 0.325, Y 3.2, L 2.85, A 0.89, N 0.635, T 0.626, K 0.481, D 0.455, P 0.658, I 2.49
R41: G 1.3, L 3.16, Q 2.66, F 3.5, Y 3.35, A 2.05, C 2.94, H 3.02, E 2.25, I 3.53, W 3.15, K 2.53, N 2.37, S 2.11, P 0.495, T 2.84, V 3.5, M 2.95, D 1.31
I42: H 0.692, L 1.09, G 0.609, Y 0.752, R 0.514, V 2.52, C 1.95, D 0.522, W 1.13, K 0.538, N 0.564, M 0.646, P 0.784, T 0.547, Q 0.449, F 1.1, A 0.487, S 0.574, E 0.453

Reference: the MegaScale stability set (Tsuboyama et al. 2023)
